From article PMC12636710

Columns and labels:
[1] = biological target: human apolipoprotein E, apoE4 isoform (ε4 allele) (human) (UniProt P02649); assay: co-IP
[2] = biological target: prion protein (PrP) (mouse (endogenous in brain of APOE-TR mice)) (UniProt P04925); assay: velocity sedimentation in a sucrose gradient

prion protein (PrP), sequence (P04925 23-230): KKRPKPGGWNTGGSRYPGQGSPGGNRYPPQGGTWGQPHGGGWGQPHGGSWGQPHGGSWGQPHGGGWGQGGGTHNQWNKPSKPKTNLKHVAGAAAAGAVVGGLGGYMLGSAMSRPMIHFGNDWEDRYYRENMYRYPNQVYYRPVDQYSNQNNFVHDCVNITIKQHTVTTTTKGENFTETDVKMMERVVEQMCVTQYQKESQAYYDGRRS
human apolipoprotein E, apoE4 isoform (ε4 allele) (human), sequence (P02649 19-317): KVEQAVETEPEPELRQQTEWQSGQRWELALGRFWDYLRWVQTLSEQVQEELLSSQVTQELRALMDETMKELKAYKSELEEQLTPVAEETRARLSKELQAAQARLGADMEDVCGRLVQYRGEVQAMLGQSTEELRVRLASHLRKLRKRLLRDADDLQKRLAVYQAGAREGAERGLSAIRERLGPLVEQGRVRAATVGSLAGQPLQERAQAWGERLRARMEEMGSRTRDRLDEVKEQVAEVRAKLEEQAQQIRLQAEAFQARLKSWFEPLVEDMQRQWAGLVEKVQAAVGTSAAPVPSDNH
prion protein (PrP), P04925 23-230 (natural protein; other documents disagree on this pair), sequence (P04925 23-230): as the sequence (P04925 23-230) above

With “prion protein (PrP) (from UniProt P04925 23-230) (natural protein)” the fold PrP/apoE OD ratio in the immunoprecipitate against ε2/ε2 22L mice [1] was 2.8 fold and the fold PrP/apoE OD ratio in the immunoprecipitate against ε3/ε3 22L mice [1] was 1.7 fold.
For “prion protein (PrP), P04925 23-230 (natural protein; other documents disagree on this pair)”, the stoichiometry N [2] was over 10.
